# T1: recombinant human IL-17A (SEQ ID NO: 76) (human, UniProt Q16552 24-155, limits assumed)
# T1 sequence: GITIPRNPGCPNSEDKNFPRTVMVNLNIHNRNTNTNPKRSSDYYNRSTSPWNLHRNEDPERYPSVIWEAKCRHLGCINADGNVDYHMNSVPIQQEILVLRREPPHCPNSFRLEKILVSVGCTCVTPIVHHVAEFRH
# T2: recombinant rat IL-17A (SEQ ID NO: 85) (rat, UniProt Q61453 18-150)
# T2 construct: also called rratIL-17A; rIL-17A
# T2 sequence: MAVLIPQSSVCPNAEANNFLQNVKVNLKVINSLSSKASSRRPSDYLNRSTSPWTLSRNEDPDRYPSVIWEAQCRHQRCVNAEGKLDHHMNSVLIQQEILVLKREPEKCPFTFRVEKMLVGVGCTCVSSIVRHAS
# T3: recombinant human IL-17A/F heterodimer (human, UniProt Q16552 24-155; Q96PD4 31-163, limits assumed)
# T3 construct: heterodimer of an IL-17A subunit and an IL-17F subunit; also called huIL-17A/F; rhuIL-17A/F
# T3 sequence (looked up) 1: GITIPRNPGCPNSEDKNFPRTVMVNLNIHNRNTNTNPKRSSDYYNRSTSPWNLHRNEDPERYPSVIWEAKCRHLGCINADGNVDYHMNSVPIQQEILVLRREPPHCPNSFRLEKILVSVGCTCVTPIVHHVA
# T3 sequence (looked up) 2: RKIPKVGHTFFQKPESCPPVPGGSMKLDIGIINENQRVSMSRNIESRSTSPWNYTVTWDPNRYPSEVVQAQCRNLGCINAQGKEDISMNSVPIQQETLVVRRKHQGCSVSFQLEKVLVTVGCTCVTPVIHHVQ
# T4: recombinant human IL-17A (SEQ ID NO: 78) (human, UniProt Q16552 24-155, limits assumed)
# T4 construct: homodimer; also called huIL-17A; hulL-17A
# T4 sequence: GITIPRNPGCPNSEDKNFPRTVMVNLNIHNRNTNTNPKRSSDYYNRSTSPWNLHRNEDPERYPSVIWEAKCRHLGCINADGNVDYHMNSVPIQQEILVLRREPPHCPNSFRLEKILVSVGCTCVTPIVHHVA
# T5: recombinant mouse IL-17A (SEQ ID NO: 83) (mouse, UniProt Q62386 26-158)
# T5 construct: also called mIL-17A; rmIL-17A
# T5 sequence: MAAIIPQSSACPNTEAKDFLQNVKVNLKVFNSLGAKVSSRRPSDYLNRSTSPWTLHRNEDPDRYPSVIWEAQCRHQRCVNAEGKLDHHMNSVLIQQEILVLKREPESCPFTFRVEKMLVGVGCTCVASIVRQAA
# T6: recombinant cynomolgus IL-17A (SEQ ID NO: 79) (cynomolgus monkey, UniProt Q16552 24-155 (human entry), limits assumed)
# T6 construct: also called cynoIL-17A; cyno IL-17A
# T6 chain: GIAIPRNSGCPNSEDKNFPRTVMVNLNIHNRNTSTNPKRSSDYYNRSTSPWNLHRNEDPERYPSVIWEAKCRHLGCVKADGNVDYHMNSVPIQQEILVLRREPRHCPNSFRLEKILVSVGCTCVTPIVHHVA
# T7: human IL-17A (construct not stated) (human, UniProt Q16552 24-155, limits assumed)
# T7 sequence: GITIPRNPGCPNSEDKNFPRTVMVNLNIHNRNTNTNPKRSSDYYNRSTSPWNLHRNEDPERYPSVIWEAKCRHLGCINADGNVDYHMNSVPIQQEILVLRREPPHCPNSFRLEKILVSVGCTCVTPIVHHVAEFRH
# Assays:
# [1] = molecular target: T1, recombinant human IL-17A (SEQ ID NO: 76); assay: cell-based or functional assay
# [2] = molecular target: T2, recombinant rat IL-17A (SEQ ID NO: 85); assay: SPR (Biacore), captured antibody, antigen as analyte
# [3] = molecular target: T3, recombinant human IL-17A/F heterodimer; assay: as above
# [4] = molecular target: T4, recombinant human IL-17A (SEQ ID NO: 78); assay: as above
# [5] = molecular target: T5, recombinant mouse IL-17A (SEQ ID NO: 83); assay: as above
# [6] = molecular target: T6, recombinant cynomolgus IL-17A (SEQ ID …); assay: as above
# [7] = molecular target: T7, human IL-17A (construct not stated); assay: cell-based or functional assay
# [8] = molecular target: T1, recombinant human IL-17A (SEQ ID NO: 76); assay: cell-based or functional assay; remark: listed apart in the source
# [9] = molecular target: T5, recombinant mouse IL-17A (SEQ ID NO: 83); assay: cell-based or functional assay
binder,measurement,setting,value
"XAB3 (antibody, human IgG1, kappa, V domains shown, also called MB468 N56Q) VH: EVQLVESGGDLVQPGGSLRLSCAASGFTFSSYWMSWVRQAPGKGLEWVANIKQDGSEKYYVDSVKGRFTISRDNAKNSLYLQMNSLRAEDTAVYYCARDRGSLYYWGQGTLVTVSS VL: AIQLTQSPSSLSASVGDRVTITCRPSQGIYWELAWYQQKPGKAPKLLIYDASSLEQGVPSRFSGSGSGTDFTLTISSLQPEDFATYYCQQFNSYPLTFGGGTKVEIKR","IC50, huGROα secretion by BJ cells; stimulus rhuIL-17A (0.5 nM)",[1],0.42 nM
same,Kd,[2],0.0826 nM
same,koff,[2],7.59e-05 s⁻¹
same,kon,[2],905000 M⁻¹ s⁻¹
same,Kd,[3],0.0329 nM
same,koff,[3],0.000103 s⁻¹
same,kon,[3],3.37e+06 M⁻¹ s⁻¹
same,Kd,[4],0.00958 nM
same,koff,[4],5.01e-05 s⁻¹
same,kon,[4],5.48e+06 M⁻¹ s⁻¹
same,Kd,[5],0.174 nM
same,koff,[5],0.000101 s⁻¹
same,kon,[5],587000 M⁻¹ s⁻¹
same,Kd,[6],0.0349 nM
same,koff,[6],4.23e-05 s⁻¹
same,kon,[6],1.21e+06 M⁻¹ s⁻¹
same,"EC50, in vitro neutralization activity, T = 0 weeks",[7],0.04 µg/mL
same,"EC50, in vitro neutralization activity, T = 4 weeks at pH 8, 40°C (forced deamidation)",[7],40 ng/ml
same,"IC50, huIL-6 secretion by BJ cells; stimulus rhuIL-17A (0.5 nM)",[8],0.5 nM
same,"IC50, KC secretion by CMT-93 cells; stimulus mIL-17A (0.15 nM)",[9],< 1 nM

# Source: patent publication US20180194839A1 (Novartis, published 2018)
